Several values for one entry are separate records, joined by “and”; a condition that tells them apart may be missing. Equal values may be shown once. Read-outs that look alike come from different tables or passages of the source. Blank lines part the entries; values can stand above or below the compound they belong to.
What was measured:
SynIIIC = SynIIIC (Rattus norvegicus, UniProt O70441); assay: isothermal titration calorimetry; type: binding
Tp0655 = target: T1, Tp0655 (Treponema pallidum, UniProt O83661); assay: isothermal titration calorimetry; type: binding
T1 sequence (O83661 24-348): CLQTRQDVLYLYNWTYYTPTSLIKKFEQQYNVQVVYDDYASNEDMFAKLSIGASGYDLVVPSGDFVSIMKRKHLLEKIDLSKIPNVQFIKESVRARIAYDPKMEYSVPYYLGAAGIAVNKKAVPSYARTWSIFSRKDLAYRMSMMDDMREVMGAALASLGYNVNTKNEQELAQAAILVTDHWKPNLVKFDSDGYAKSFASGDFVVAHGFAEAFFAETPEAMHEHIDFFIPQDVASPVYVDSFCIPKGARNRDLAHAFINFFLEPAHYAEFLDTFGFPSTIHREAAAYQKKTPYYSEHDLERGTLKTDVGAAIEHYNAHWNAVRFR

HIF2α = HIF2α (Homo sapiens, UniProt Q99814); assay: isothermal titration calorimetry; type: binding
[1] = target: bovine α-chymotrypsin (bovine); assay: ITC
[2] = target: bovine α-chymotrypsin (bovine); assay: ITC; remark: listed apart in the source
[3] = target: bovine α-chymotrypsin (bovine); assay: ITC; remark: listed apart in the source
hLF = hLF (UniProt P02788); assay: ITC
Sequence of hLF (P02788 20-710): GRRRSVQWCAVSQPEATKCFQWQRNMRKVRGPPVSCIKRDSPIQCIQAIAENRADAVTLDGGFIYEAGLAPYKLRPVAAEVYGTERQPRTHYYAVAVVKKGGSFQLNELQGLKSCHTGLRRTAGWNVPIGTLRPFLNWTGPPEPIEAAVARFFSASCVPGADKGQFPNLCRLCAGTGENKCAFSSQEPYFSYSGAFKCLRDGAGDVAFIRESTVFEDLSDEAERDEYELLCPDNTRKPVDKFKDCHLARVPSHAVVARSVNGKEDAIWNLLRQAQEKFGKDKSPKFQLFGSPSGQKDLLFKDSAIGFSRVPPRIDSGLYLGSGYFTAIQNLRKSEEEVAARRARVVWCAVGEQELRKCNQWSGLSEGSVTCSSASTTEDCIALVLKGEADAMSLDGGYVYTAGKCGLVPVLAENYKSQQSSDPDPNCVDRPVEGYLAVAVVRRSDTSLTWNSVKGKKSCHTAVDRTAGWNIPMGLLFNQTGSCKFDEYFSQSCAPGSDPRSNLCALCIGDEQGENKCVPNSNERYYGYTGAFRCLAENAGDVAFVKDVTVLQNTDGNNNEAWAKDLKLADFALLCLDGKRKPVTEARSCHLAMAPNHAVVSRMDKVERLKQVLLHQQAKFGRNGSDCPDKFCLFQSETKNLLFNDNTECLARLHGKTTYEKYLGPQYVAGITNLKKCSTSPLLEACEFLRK

Sequence of HIF2α (Q99814 239-350): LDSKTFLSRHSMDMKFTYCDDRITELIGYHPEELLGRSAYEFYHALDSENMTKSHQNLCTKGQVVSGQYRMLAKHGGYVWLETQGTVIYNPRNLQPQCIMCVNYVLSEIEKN
Sequence of SynIIIC (O70441 89-403): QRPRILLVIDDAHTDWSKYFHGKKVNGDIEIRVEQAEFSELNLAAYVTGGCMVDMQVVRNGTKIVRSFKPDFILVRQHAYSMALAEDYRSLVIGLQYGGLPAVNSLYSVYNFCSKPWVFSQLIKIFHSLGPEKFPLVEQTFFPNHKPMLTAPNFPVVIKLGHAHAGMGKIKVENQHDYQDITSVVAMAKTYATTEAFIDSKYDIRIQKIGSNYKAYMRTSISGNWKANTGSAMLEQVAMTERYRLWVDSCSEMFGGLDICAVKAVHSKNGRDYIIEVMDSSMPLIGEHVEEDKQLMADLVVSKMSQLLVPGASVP

Kd (SynIIIC): 0.136 µM
Compound: Nc1ncnc2c1ncn2[C@@H]1O[C@H](COP(=O)(O)OP(=O)(O)OP(=O)(O)O)[C@@H](O)[C@H]1O [ATP]

Compound: NCCCN [DAP]
Kd (Tp0655): 36.2 µM

Kd (HIF2α): 0.105 µM
Compound: O=[N+]([O-])c1c(Nc2cc(F)cc(Cl)c2)ccc2nonc12 [HBA, N-(3-Chloro-5-fluorophenyl)-4-nitrobenzo[c][1,2, 5]oxadiazol-5-amine]

Compound: NCCCCN [Putrescine]
Kd (Tp0655): 0.117 µM

Compound: NCCCCNCCCN [Spermidine]
Kd (Tp0655): 2.37 µM

dH [1]: 10.3 kcal/mol and 10.9 kcal/mol and 9.7 kcal/mol | logKa [1]: 7.27 | dH [2]: 10.5 kcal/mol (2×) and 10.3 kcal/mol | logKa [2]: 6.99 and 7 and 6.9 | dH [3]: 10.5 kcal/mol (2×) and 10.4 kcal/mol | log(Ka) [3]: 6.89 and 6.98 and 7
Compound: Soybean trypsin inhibitor (from UniProt P01070 25-205) (natural protein)

Compound: Tp34 (files named H70ATp34hLF...) (from UniProt P19478 20-204) (natural protein)
dH (hLF): 4.9 kcal/mol

Compound: Tp34 (from UniProt P19478 20-204) (natural protein)
Kd (hLF): 11.3 µM and 11 µM and 22.3 µM | log(Ka) (hLF): 4.95 | logKa (hLF): 4.96 and 4.65

Reference: publication PMC4380771 (Methods (San Diego, Calif.), 2014)
